Source: patent publication US20240102068A1, “C-GLYCOSYLTRANSFERASE VARIANTS AND USE THEREOF” (KOREA ADVANCED INSTITUTE OF SCIENCE AND TECHNOLOGY, priority 2021, published 2024)

What was measured:
apigenin = experiment: Conversion of apigenin to vitexin by intracellularly expressed enzyme, flask culture; assay type: cell-based, E. coli
Protocol: (§1) As such, 70 μM luteolin, 0.5 mM naringenin, or 185.2 μM apigenin was co-administered, followed by culture for an additional 36 hours. The amounts of substrate and product were analyzed by LC-MS. Flask culture was carried out in a 250 mL baffled flask containing 50 mL of R/2 medium (supplemented with 3 g/L yeast extract and 20 g/L glucose), and culture was performed at 30° C. and 200 rpm.

luteolin = experiment: Conversion of luteolin to isoorientin by intracellularly expressed enzyme, flask culture; assay type: cell-based, E. coli
Protocol: as §1

[1] = KM and Vmax of purified GtCGT enzymes, FK converted into dcII, UDP-Glo Glycosyltransferase Assay; assay type: biochemical, Gentiana triflora; details: substrate FK
Protocol: The purified enzyme was buffer-exchanged with an enzyme storage solution (50 mM HEPES, 20% glycerol, pH 7.5) using Amicon Ultra-15 Centrifugal Filters (regenerated cellulose, 50,000 NMWL; Merck), and in order to calculate KM and Vmax values, FK was converted into dcII using the purified enzyme. Here, a UDP-Glo Glycosyltransferase Assay Kit (Promega) was used to determine the extent of reaction. Since this kit enables measurement of free UDP generated as a reaction byproduct by luminescence, 200 μL of an enzyme reaction solution containing 0.1 μM enzyme and various concentrations of FK (50 mM HEPES, 0.1 mM UDP-glucose, 5 mM MgCl2, pH 7.5) was allowed to react at 25° C. for 1 hour, 25 μL thereof was taken out, and the amount of emitted light was measured using the kit.

naringenin = experiment: Conversion of naringenin to naringenin-6-C-glucoside by intracellularly expressed enzyme, flask culture; assay type: cell-based, E. coli
Protocol: as §1

FK = experiment: dcII production from FK by C-glycosyltransferase candidates and GtCGT mutants in FK-producing E. coli, flask culture; assay type: cell-based; details: flask culture
Protocol: Flask culture was carried out under the following conditions. Colonies were seeded into 10 mL of LB medium supplemented with appropriate concentrations of antibiotics, followed by culture overnight at 37° C. The culture fluid thus prepared was passaged into a 250 mL baffled flask containing 50 mL of R/2 medium supplemented with 3 g/L yeast extract and 20 g/L glucose (with 0.45 g/L ascorbic acid if necessary), followed by culture at 30° C. and 200 rpm. The composition of R/2 medium (pH 6.8) was as follows (per liter): 2 g of (NH4)2HPO4, 6.75 g of KH2PO4, 0.85 g of citric acid, 0.7 g of MgSO4·7H2O, and 5 ml of trace metal solution (TMS) [10 g of FeSO4·7H2O, 2.25 g of ZnSO4·7H2O, 1 g of CuSO4·5H2O, 0.5 g of MnSO4·5H2O, 0.23 g of Na2B4O7·10H2O, 2 g of CaCl2·2H2O, and 0.1 g of (NH4)6Mo7O24 per liter of 5 M HCl]. When OD600 of the culture fluid reached 0.6-0.8, 1 mM isopropyl β-D-1-thiogalactopyranoside (IPTG) was added to induce exogenous gene expression, followed by culture for 48 hours.
After culture, production analysis was performed under the following conditions. After flask culture, 50 mL of the culture fluid was centrifuged at 4,000 g for 30 minutes, and then the supernatant was desalted and concentrated. Here, Oasis HLB cartridges (Water) were used. The supernatant was concentrated 1-fold for FK, 30-fold for KA, 45-fold for dell, and 200-fold for carminic acid. The concentrated sample was re-dissolved in an appropriate volume of DMSO and impurities were then removed therefrom using a 0.22 μm PTFE filter. The prepared sample was analyzed by MS (LC/MSD VL; Agilent) coupled with HPLC (1100 series; Agilent). An Eclipse XDB-C18 column was used, 0.1% formic acid was used as buffer A, and methanol was used as buffer B. Analysis was performed in an ESI negative mode. For more accurate analysis of carminic acid, LC-MS/MS was performed using an HPLC Triple Quadrupole Mass Spectrometer (LCMS-8050, Shimadzu) (MRM mode).
Flask culture started by seeding colonies from LB agar plates into test tubes containing 10 mL of LB. As such, an appropriate concentration of antibiotics was added, followed by culture overnight at 37° C. at 220 rpm. 1 mL of the seed culture thus prepared was inoculated into a 250 mL baffled flask containing 50 mL of R/2 medium (supplemented with 3 g/L yeast extract and 20 g/L glucose), followed by culture at 30° C. and 200 rpm. The composition of R/2 medium was as follows (pH 6.8, per 1 L): 2 g of (NH4)2HPO4, 6.75 g of KH2PO4, 0.85 g of citric acid, 0.8 g of MgSO4·7H2O, and 5 ml of trace metal solution (TMS). The composition of TMS was as follows (based on 0.1 M HCl, per 1 L): 10 g of FeSO4·7H2O, 2.25 g of ZnSO4·7H2O, 1 g of CuSO4·5H2O, 0.58 g of MnSO4·5H2O, 0.02 g of Na2B4O7·10H2O, 2 g of CaCl2·2H2O, and 0.1 g of (NH4)6Mo7O24·4H2O. When OD600 of the culture fluid reached 0.6-0.8, 0.5 mM IPTG was added to induce exogenous enzyme expression, followed by culture for 48 hours. In all experiments for producing flavokermesic acid, kermesic acid, dcII, and carminic acid, 0.45 g/L of ascorbic acid was further added.
The production of carminic acid (CA) from FK was performed by two biosynthesis pathways, both of which require monooxygenase and C-glycosyltransferase. FK may be oxidized into KA or may be C-glycosylated into dcII. […] In order for the enzyme to have activity, however, it must be glycosylated, and since it also has a transmembrane helix and a signal peptide, successful expression in cells such as E. coli is considered difficult.
For the enzymes selected above, pCDF-DcCGT, pCDF-MiCGT, pCDF-SfCGT, pCDF-EnCGT, pCDF-OsCGT, pCDF-FeCGT, pCDF-GmCGT, pCDF-AvCGT, pCDF-AvCGT, pCDF-ZmCGT, and pCDF-GtCGT were constructed, and all genes except for the iroB gene amplified from genomic DNA of E. coli Nissle using the iroB_gib_F primer and the iroB_gib_R primer were artificially synthesized and inserted into the NdeI site of the pCDFDuet-1 plasmid using Gibson assembly. […]

aloesone = experiment: Aloesin production from aloesone by GtCGT and variants in E. coli BL21(DE3), flask culture; assay type: cell-based
Protocol: Also, in LC-MS/MS for aloesin analysis, MS (Agilent 6550 iFunnel Q-TOF LC/MS System) coupled with ultra HPLC (UHPLC; 1290 Infinity II LC System; Agilent) was used. Here, an Eclipse-plus C18 column was used, and 0.1% formic acid was used as buffer A, and acetonitrile to which 0.1% formic acid was added was used as buffer B.
Thereafter, in order to test the production of aloesin, the pCDF-GtCGT or pCDF-GtCGT^V93Q/Y193F plasmid was transformed into the BL21(DE3) strain containing pWAS-anti-pabA, pRSF-RpALS, and pBBR1-zwf plasmids, followed by flask culture.
Similarly to the test for increased production of aloesone, RpALS was additionally introduced to increase aloesin production. To this end, pCDF-RpALS-GtCGT^V93Q/Y193F was constructed instead of introducing pCDF-GtCGT^V93Q/Y193F. Specifically, RpALS was amplified from pCDF-RpALS using pCDFDuet F and pCDFDuet R primers, and inserted into the NcoI and BamHI sites of the pCA plasmid through Gibson assembly. Thereafter, four plasmids, namely pRSF-RpALS, pCDF-RpALS-GtCGT^V93Q/Y193F, pWAS-anti-pabA, and pBBR1-zwf, were transformed into E. coli BL21(DE3), which was named an ALS strain.
(§2) Mutagenesis for a specific sequence was performed in the same manner as in Example 2. Here, plasmids containing gene mutants were constructed using pCDF-RpALS-GtCGT^V93Q/Y193F as a template and using primer pairs shown in Table 11 below. The plasmids thus constructed were transformed into the BL21 (DE3) strain along with three plasmids, namely pWAS-anti-pabA, pRSF-RpALS, and pBBR1-zwf, followed by flask culture under the same conditions as in Example 3 using the strains thus constructed. The concentration of aloesin produced was measured in an MRM mode of the HPLC Triple Quadrupole Mass Spectrometer (LCMS-8050, Shimadzu) of the KAIST Biocore Center.
as §2, with “13” for “11”

B1: GtCGT^V93Q/Y193F: GtCGT variant with substitutions V93Q and Y193F (SEQ ID NO: 61) (protein)
chain: MGSLTNNDNLHIFLVCFIGQGVVNPMLRLGKAFASKGLLVTLSAPEIVGTEIRKANNLNDDQPIKVGSGMIRFEFFDDGWESVNGSKPFDVWQYINHLDQTGRQKLPIMLKKHEETGTPVSCLILNPLVPWVADVADSLQIPCATLWVQSCASFSAYYHYHHGLVPFPTESEPEIDVQLPGMPLLKYDEVPDFLHPRTPYPFFGTNILGQFKNLSKNFCILMDTFYELEHEIIDNMCKLCPIKPIGPLFKIPKDPSSNGITGNFMKVDDCKEWLDSRPTSTVVYVSVGSVVYLKQEQVTEMAYGILNSEVSFLWVLRPPSKRIGTEPHVLPEEFWEKAGDRGKVVQWSPQEQVLAHPATVGFLTHCGWNSTQEAISSGVPVITFPQFGDQVTNAKFLVEEFKVGVRLGRGELENRIITRDEVERALREITSGPKAEEVKENALKWKKKAEETVAKGGYSERNLVGFIEEVARKTGTK
modifications: GtCGT V93Q/Y193F (GtUF6CGT1V93Q/Y193F) variant
For B1, the conversion rate (apigenin; apigenin to vitexin) was 8.1%, the vitexin produced (apigenin; from 185.2 μM apigenin, 36 hours, with pBBR1-galU-pgm-ndk) was 15.0 µM and the isoorientin produced (luteolin; from 70 μM luteolin, 36 hours, with pBBR1-galU-pgm-ndk) was 27.9 µM. For the same molecule, the conversion rate (luteolin; luteolin to isoorientin) was 27.9%, the “Vmax/KM value increase compared to GtCGT” value [1] was 46.8% and the naringenin-6-C-glucoside produced (naringenin; from 0.5 mM naringenin, 36 hours, with pBBR1-galU-pgm-ndk) was 51.6 µM. The conversion rate (naringenin; naringenin to naringenin-6-C-glucoside) was 10.3%, the “dcII production increase compared to wild-type GtCGT” value (FK; FK strain) was 5.3 fold and the dcII production (FK; FK-producing E. coli strain) was 0.74 mg CA eq/L. For the same molecule, the aloesin production (aloesone; BL21(DE3) with pWAS-anti-pabA, pRSF-RpALS, pBBR1-zwf and pCDF-GtCGT variant plasmid) was 0.06 µg/L and the “aloesin amount compared with strain containing GtCGT” value (aloesone; flask culture) was “greater amount of aloesin than the strain containing GtCGT”.
